Experiments:
[1] = Characterisation of purified recombinant PytH2 carboxylesterase on p-nitrophenyl esters; format: biochemical
Experimental: Protein is a carboxylesterase from Sphingobium wenxiniae produced by PytH2 recombinant, expressed in E. coli BL21 (DE3) IUBMB: 3.1.1.88 CAS: 9016-18-6. The Chemical Composition of the carboxylesterase has Chemical purity: >90% buffer of 10 mM phosphate (pH 7.4), 2.7 mM KCI, 137 mM NaCI. Post translational procedures produced in a protease deficient E. coli strain and optimized for synthesis. The protein Appearance: clear, colorless solution:
Unit definition: One unit is defined as the amount of enzyme required to generate 1 μmol/min of 4-p-nitrophenol from 4-nitrophenyl-L-acetate at 30° C. and pH 7.4. Specific activity: 15±3 μ/mg
The enzyme is also deactivated by surfactant compounds such as SDS.
An esterase gene (PytH2) of Sphingobium wenxiniae containing an open reading frame (ORF) of 873 bp. The ORF of PytH2 was expressed in Escherichia coli, under the control of the promoter T7. […] E. coli BL21(DE3)/pET28 containing PytH2 expressed a novel 31.4-kDa protein corresponding to PytH2 in an N-terminal fusion with the His-tag peptide. The recombinant Sphingobium wenxiniae PytH2 protein was purified to electrophoretic homogeneity in a one-step affinity chromatography procedure on Ni-NTA Resin. The optimum pH and temperature of the purified enzyme were 7.0 and 37 degrees C., respectively. […] It was also active on pNP-butyrate(C(4) and pNPcaproate(C(6)).

[2] = Biological permethrin assay for esterase activity (activity units of esterases); format: biochemical; details: esterases used in reaction mix for scud assay
Experimental: A biological permethrin assay was performed for control, and three esterases pnbA, pytH2 and MsE1. The sensitivity of scuds (Hyalella Azteca) to permethrin was tested with three esterases pnbA, pytH2 and MsE1.
For control and each of the three esterases pnbA, pytH2 and MsE1, ten scuds were exposed to permethrin and one of pnbA, pytH2 or MsE1.
• 100 μL 50% MeOH in PBS • 0.2 μg/μL
• 37 degree C. • 18 hr • Shanking 1000 rpm Transferred 20 μL rxn mix [4 μg] to 100 mL [containing 10 scuds] At time, 24 h and 48 h the ten scuds were scored: A=Alive and Moving actively BA=Barely Alive—Difficulty swimming away; only legs are moving D=Dead—Not moving at all The results of which are shown in FIGS. 8 and 9.

B1: E3: carboxylesterase PytH2 (pytH) from Sphingobium wenxiniae, amino acid SEQ. ID No. 3, DNA SEQ. ID No. 6; recombinant, His-tagged (protein, listed as Sphingobium wenxiniae)
chain: MTVTDIILIHGALNRGACYDAVVPLLEARGYRVHAPDLTGHTPGDGGHLSVVDMEHYTRPVADILARAEGQSILLGHSLGGASISWLAQHHYDKVAGLIYLTAVLTAPGITPETFVLPGEPNRGTPHALDLIQPVDEGRGLQADFSRLERLREVFMGDYPGEGMPPAEQFIQTQSTVPFGTPNPMEGRALEIPRLYEALDDVVIPIAVQRQMQKEFPGPVAVVSLPASHAPYYSMPERLAEAIADFADAPAEYRQTATKAGPDRPAGADGGRADRADLP
modifications: His tag
notes: ID No. 6; recombinant, His-tagged
cofactor requirement for activity [1]: does not require a cofactor
stability of the enzyme [1]: quite stable
activity after heat incubation ([1]; after incubation at 70° C.): inactive
effect of metal ions on the enzyme ([1]; metal ions, can recover activity): strongly inhibited
Specific activity ([1]; one unit = 1 μmol/min 4-p-nitrophenol from 4-nitrophenyl-L-acetate at 30° C. and pH 7.4): 15±3 μ/mg
substrate preference among pNP (p-nitrophenyl) esters: pNP-acetate (C(2)) ([1]; pNP-acetate): best substrate
activity on pNP-butyrate ([1]; pNP-butyrate(C(4))): active
activity on pNPcaproate ([1]; pNPcaproate(C(6))): active
optimum pH ([1]; purified enzyme): 7.0
optimum temperature ([1]; purified enzyme): 37 degrees C.
effect of surfactant compounds on the enzyme ([1]; surfactant compounds such as SDS): deactivated
Activity units [2]: 31.6

— US20220047684A1, “ENZYMES AND METHODS FOR PREVENTING AND TREATING […] IN ANIMALS” (Ecto Development Corporation, priority 2020, published 2022)
